Data on four substances can be found in paper PMC10657180.

Assay [1] deals with neddylated CUL1-RBX1 with the FBXW7-SKP1 substrate receptor (human) (UniProt Q13616).
For assay [2], the target named is neddylated CUL2-RBX1 in complex with the KLHDC2-ELONGIN B/C substrate receptor (human) (UniProt Q13617).
For assay [3], the target named is neddylated CUL2-RBX1 in complex with the VHL-ELONGIN B/C substrate receptor (human) (UniProt Q13617).

Chain of ARIH1 (Q9Y4X5 whole entry): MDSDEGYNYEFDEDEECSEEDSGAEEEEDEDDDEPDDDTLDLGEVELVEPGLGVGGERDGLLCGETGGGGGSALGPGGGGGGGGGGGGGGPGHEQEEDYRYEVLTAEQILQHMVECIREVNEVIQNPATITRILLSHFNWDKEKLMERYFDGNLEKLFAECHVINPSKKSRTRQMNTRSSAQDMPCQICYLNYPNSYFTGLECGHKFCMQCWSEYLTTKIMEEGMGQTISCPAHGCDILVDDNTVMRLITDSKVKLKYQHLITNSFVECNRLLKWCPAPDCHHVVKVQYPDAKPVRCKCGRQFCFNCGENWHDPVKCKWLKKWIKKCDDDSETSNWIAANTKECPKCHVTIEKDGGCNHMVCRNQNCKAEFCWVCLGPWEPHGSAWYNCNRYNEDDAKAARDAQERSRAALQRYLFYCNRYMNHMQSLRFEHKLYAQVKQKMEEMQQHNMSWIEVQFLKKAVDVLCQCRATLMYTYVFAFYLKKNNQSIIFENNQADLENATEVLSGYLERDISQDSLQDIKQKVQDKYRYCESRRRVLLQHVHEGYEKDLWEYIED

As to “A397D/K398I/A399V ARIH1 (from UniProt Q9Y4X5 1-557) (enzyme)”, in assay [1], the Km of ARIH1 for the CRL-substrate complex (single-encounter ubiquitylation, ARIH1 titrated, 10 s, Michaelis-Menten fit); peptide on the CRL: KR Lys 387 cycE stood at 1.12 µM; the Km of ARIH1 for the CRL-substrate complex (single-encounter ubiquitylation, ARIH1 titrated, 10 s, Michaelis-Menten fit); peptide on the CRL: KR Ser 387 cycE was 1.19 µM; the Km of ARIH1 for the CRL-substrate complex (single-encounter ubiquitylation, ARIH1 titrated, 10 s, Michaelis-Menten fit); peptide on the CRL: Lys only cycE was 0.544 µM.
Turning to “ARIH1 (from UniProt Q9Y4X5 1-557) (enzyme)”, in assay [2], the Km of ARIH1 for the CRL-substrate complex (single-encounter ubiquitylation without cold competitor peptide, ARIH1 titrated, 10 s, Michaelis-Menten fit); peptide on the CRL: Arg47 Arg48 SelK stood at 0.391 µM and the Km of ARIH1 for the CRL-substrate complex (single-encounter ubiquitylation without cold competitor peptide, ARIH1 titrated, 10 s, Michaelis-Menten fit); peptide on the CRL: Lys47 Arg48 SelK was 0.268 µM. For the same substance, in assay [3], the Km of ARIH1 for the CRL-substrate complex (single-encounter ubiquitylation, ARIH1 titrated, 10 s, Michaelis-Menten fit); peptide on the CRL: NSer Hif1α was 0.66 µM and the Km of ARIH1 for the CRL-substrate complex (single-encounter ubiquitylation, ARIH1 titrated, 10 s, Michaelis-Menten fit); peptide on the CRL: WT Hif1α was 0.403 µM.
Consider “K342A/E343A ARIH1 (from UniProt Q9Y4X5 1-557) (enzyme)”, for which, in assay [1], the Km of ARIH1 for the CRL-substrate complex (single-encounter ubiquitylation, ARIH1 titrated, 10 s, Michaelis-Menten fit); peptide on the CRL: KR Lys 387 cycE worked out at 1.56 µM; the Km of ARIH1 for the CRL-substrate complex (single-encounter ubiquitylation, ARIH1 titrated, 10 s, Michaelis-Menten fit); peptide on the CRL: KR Ser 387 cycE was determined as 0.461 µM; the Km of ARIH1 for the CRL-substrate complex (single-encounter ubiquitylation, ARIH1 titrated, 10 s, Michaelis-Menten fit); peptide on the CRL: Lys only cycE was 1.22 µM.
With “N358A ARIH1 (from UniProt Q9Y4X5 1-557) (enzyme)”, in assay [1], the Km of ARIH1 for the CRL-substrate complex (single-encounter ubiquitylation, ARIH1 titrated, 10 s, Michaelis-Menten fit); peptide on the CRL: KR Lys 387 cycE turned out to be 0.874 µM; the Km of ARIH1 for the CRL-substrate complex (single-encounter ubiquitylation, ARIH1 titrated, 10 s, Michaelis-Menten fit); peptide on the CRL: KR Ser 387 cycE came to 1.04 µM; the Km of ARIH1 for the CRL-substrate complex (single-encounter ubiquitylation, ARIH1 titrated, 10 s, Michaelis-Menten fit); peptide on the CRL: Lys only cycE was 0.98 µM.
